Positions count from the first letter of the chain named.
What was measured:
human CD28 = human CD28 (human, UniProt P10747 19-152); test: -; scFv VHVL, 1+1 Fab-scFv-Fc
cynomolgus ENPP3 [1] = biological target: T1, cynomolgus ENPP3 (cynomolgus, UniProt A0A2K5TKP4 49-874); test: Biacore; steady state
T1 chain: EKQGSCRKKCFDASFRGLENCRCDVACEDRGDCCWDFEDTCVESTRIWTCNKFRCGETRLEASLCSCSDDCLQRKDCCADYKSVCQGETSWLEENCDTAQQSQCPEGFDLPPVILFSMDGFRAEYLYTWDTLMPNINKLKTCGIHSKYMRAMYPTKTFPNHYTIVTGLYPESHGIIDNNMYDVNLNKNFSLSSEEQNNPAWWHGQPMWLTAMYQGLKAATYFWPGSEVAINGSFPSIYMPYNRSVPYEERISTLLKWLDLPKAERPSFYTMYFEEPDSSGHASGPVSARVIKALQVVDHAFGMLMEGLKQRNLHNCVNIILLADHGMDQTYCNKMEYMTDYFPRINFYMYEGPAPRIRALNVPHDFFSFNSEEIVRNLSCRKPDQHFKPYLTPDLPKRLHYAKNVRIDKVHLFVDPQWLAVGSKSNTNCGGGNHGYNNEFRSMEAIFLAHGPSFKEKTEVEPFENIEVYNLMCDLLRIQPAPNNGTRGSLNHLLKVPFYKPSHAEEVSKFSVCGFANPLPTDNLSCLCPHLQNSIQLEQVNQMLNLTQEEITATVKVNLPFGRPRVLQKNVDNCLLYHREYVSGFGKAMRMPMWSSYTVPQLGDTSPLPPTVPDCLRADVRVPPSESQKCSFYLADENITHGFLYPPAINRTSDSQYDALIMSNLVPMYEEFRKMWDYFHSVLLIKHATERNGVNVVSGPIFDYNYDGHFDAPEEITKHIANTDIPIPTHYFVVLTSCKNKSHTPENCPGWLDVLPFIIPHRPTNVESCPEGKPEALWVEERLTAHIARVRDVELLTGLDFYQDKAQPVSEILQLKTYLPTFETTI

Human ENPP3 [2] = test: Biacore; steady state
cynomolgus ENPP3 [3] = biological target: T1, cynomolgus ENPP3; test: Biacore; kinetics
Human ENPP3 [4] = test: Biacore; kinetics
Ha16-1(3,5)5[ENPP3]_H1L1 [5] = test: Biacore; steady state
ENPP3-A[ENPP3]_H1L1 [6] = test: Biacore; steady state
[7] = biological target: Ha16-1(3,5)18[ENPP3]_H1L1; test: Biacore; steady state
Ha16-1(3,5)5[ENPP3]_H1L1 [8] = test: Biacore; kinetics
ENPP3-A[ENPP3]_H1L1 [9] = test: Biacore; kinetics
[10] = biological target: Ha16-1(3,5)18[ENPP3]_H1L1; test: Biacore; kinetics

B1: H1.14_L1 (antibody, V domains shown)
VH: EVQLLESGGGLVQPGGSLRLSCAASGFTFSSYAMSWVRQAPGKGLEWVSTISGSGDSTYYADSVKGRFTISRDNSKNTLYLQMNSLRAEDTAVYYCAKSGPGLRQVGFDYWGQGTLVTVSS
VL: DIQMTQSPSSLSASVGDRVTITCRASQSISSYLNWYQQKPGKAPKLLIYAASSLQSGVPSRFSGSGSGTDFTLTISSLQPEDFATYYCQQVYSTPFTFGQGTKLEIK
Q: Which Kd (human CD28) does the source give for B1 here?
A: Its Kd is 230 nM.

B2: H1.14_L1.71 (antibody, V domains shown)
VH: B1 VH with A33Y, G53E
VL: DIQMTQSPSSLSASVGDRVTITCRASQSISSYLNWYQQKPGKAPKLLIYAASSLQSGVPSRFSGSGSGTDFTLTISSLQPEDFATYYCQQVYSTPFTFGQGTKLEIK
Q: Which Kd (human CD28) does the source give for B2 here?
A: The Kd was 37 nM.

B3: H1L1 (antibody, V domains shown)
VH: B1 VH
VL: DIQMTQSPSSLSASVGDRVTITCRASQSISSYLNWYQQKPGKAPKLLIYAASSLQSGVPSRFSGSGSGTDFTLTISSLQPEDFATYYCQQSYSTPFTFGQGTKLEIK
Q: Which Kd (human CD28) does the source give for B3 here?
A: Its Kd is 1000 nM.

B4: H1.1_L1 (antibody, V domains shown)
VH: B1 VH with A33Y
VL: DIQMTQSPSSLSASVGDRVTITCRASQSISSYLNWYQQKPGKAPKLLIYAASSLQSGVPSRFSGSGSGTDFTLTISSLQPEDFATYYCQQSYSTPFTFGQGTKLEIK
Q: Which Kd (human CD28) does the source give for B4 here?
A: Its Kd is 600 nM.

B5: H1.1_L1.71 (antibody, V domains shown)
VH: B1 VH with A33Y, G53E
VL: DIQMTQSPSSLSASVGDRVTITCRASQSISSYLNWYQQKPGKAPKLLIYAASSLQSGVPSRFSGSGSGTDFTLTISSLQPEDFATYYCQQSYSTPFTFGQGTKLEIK
Q: For B5, which Kd (human CD28) is on record?
A: The Kd was 96 nM.

B6: H1_L1.71 (antibody, V domains shown)
VH: B1 VH with A33Y
VL: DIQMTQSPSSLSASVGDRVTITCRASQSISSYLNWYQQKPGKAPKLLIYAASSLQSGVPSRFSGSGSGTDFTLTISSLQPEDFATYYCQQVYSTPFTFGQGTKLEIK
Q: For B6, which Kd (human CD28) is on record?
A: The Kd was 180 nM.

B7: AN1[ENPP3]_H1_L1.33 (antibody, V domains shown)
VH: EVQLVESGGGLVQPGGSLRLSCAASGFAFSNYGMSWVRQAPGKRLEWVSYISSGGGTTYYLDSVKGRFTISRDNAKNSLYLQMNSLRAEDTAVYYCARHRRVYYGYYFDYWGQGTLVTVSS
VL: DILLTQSPDFQSVTPKEKVTITCRASQSIGTSIHWYQQKPDQSPKLLIEYASESISGIPSRFSGSGSGTDFTLTINSLEAEDAATYYCQQSNSWPYTFGGGTKLEIK
Q: How did the Kd (cynomolgus ENPP3 [1]) turn out when B7 was run?
A: Its Kd is 1200 nM.

Q: What about the Kd (Human ENPP3 [2]) of the same binder?
A: Its Kd is 170 nM.

Q: And the Kd (cynomolgus ENPP3 [3])?
A: Its Kd is 1800 nM.

Q: What about the Kd (Human ENPP3 [4]) of the same binder?
A: Its Kd is 74 nM.

B8: AN1[ENPP3]_H1L1 (antibody, V domains shown)
VH: B7 VH
VL: B7 VL with E49K
Q: For B8, which Kd (cynomolgus ENPP3 [1]) is on record?
A: Its Kd is 470 nM.

Q: What about the Kd (Human ENPP3 [2]) of the same binder?
A: Its Kd is 35 nM.

Q: And the Kd (cynomolgus ENPP3 [3])?
A: The Kd was 460 nM.

Q: And the Kd (Human ENPP3 [4])?
A: The Kd was 9 nM.

B9: Cyno ENPP3 (enzyme)
chain: T1 chain
Q: B9 was tested. Which Kd (Ha16-1(3,5)5[ENPP3]_H1L1 [5]) did it give?
A: Its Kd is 70 nM.

Q: What about the Kd (ENPP3-A[ENPP3]_H1L1 [6]) of the same binder?
A: Its Kd is 330 nM.

Q: And the Kd [7]?
A: The Kd was 140 nM.

Q: And the Kd (Ha16-1(3,5)5[ENPP3]_H1L1 [8])?
A: Its Kd is 21 nM.

Q: And the Kd (ENPP3-A[ENPP3]_H1L1 [9])?
A: Its Kd is 320 nM.

Q: What about the Kd [10] of the same binder?
A: The Kd was 110 nM.
